This data set deals with the molecule itself. Nature of the data set: SEC; gel filtration of the purified enzyme; apparent molecular mass from the elution volumes of three standard proteins (apoferritin 443 kDa, yeast alcohol dehydrogenase 150 kDa, bovine serum albumin 66 kDa). Background: SEC sorts molecules by how far they enter the pores of the column.

B1: E. coli AlaRS (enzyme, UniProt P00957 1-876, looked up)
chain: MSKSTAEIRQAFLDFFHSKGHQVVASSSLVPHNDPTLLFTNAGMNQFKDVFLGLDKRNYSRATTSQRCVRAGGKHNDLENVGYTARHHTFFEMLGNFSFGDYFKHDAIQFAWELLTSEKWFALPKERLWVTVYESDDEAYEIWEKEVGIPRERIIRIGDNKGAPYASDNFWQMGDTGPCGPCTEIFYDHGDHIWGGPPGSPEEDGDRYIEIWNIVFMQFNRQADGTMEPLPKPSVDTGMGLERIAAVLQHVNSNYDIDLFRTLIQAVAKVTGATDLSNKSLRVIADHIRSCAFLIADGVMPSNENRGYVLRRIIRRAVRHGNMLGAKETFFYKLVGPLIDVMGSAGEDLKRQQAQVEQVLKTEEEQFARTLERGLALLDEELAKLSGDTLDGETAFRLYDTYGFPVDLTADVCRERNIKVDEAGFEAAMEEQRRRAREASGFGADYNAMIRVDSASEFKGYDHLELNGKVTALFVDGKAVDAINAGQEAVVVLDQTPFYAESGGQVGDKGELKGANFSFAVEDTQKYGQAIGHIGKLAAGSLKVGDAVQADVDEARRARIRLNHSATHLMHAALRQVLGTHVSQKGSLVNDKVLRFDFSHNEAMKPEEIRAVEDLVNTQIRRNLPIETNIMDLEAAKAKGAMALFGEKYDERVRVLSMGDFSTELCGGTHASRTGDIGLFRIISESGTAAGVRRIEAVTGEGAIATVHADSDRLSEVAHLLKGDSNNLADKVRSVLERTRQLEKELQQLKEQAAAQESANLSSKAIDVNGVKLLVSELSGVEPKMLRTMVDDLKNQLGSTIIVLATVVEGKVSLIAGVSKDVTDRVKAGELIGMVAQQVGGKGGGRPDMAQAGGTDAAALPAALASVKGWVSAKLQ
notes: Escherichia coli alanyl-tRNA synthetase; calculated molecular mass of 96 kDa; Construct, tags and host are not described; The calculated mass of 96 kDa would fit the whole protein; also called EcAlaRS; source: purified
In the case of B1, the binding result is listed as “binds”.

The values above are taken from publication PMC6451123, “The G3-U70-independent tRNA recognition by human mitochondrial alanyl-tRNA synthetase” (Nucleic Acids Research, 2019).
